Among the data in patent publication US8003599 are L1 cleavage values, retold here.

For this series, the target named is human L1 adhesion molecule (L1-CAM), wild type, on cells.
human L1 adhesion molecule (L1-CAM), wild type, on cells, sequence (chain, as listed by the source): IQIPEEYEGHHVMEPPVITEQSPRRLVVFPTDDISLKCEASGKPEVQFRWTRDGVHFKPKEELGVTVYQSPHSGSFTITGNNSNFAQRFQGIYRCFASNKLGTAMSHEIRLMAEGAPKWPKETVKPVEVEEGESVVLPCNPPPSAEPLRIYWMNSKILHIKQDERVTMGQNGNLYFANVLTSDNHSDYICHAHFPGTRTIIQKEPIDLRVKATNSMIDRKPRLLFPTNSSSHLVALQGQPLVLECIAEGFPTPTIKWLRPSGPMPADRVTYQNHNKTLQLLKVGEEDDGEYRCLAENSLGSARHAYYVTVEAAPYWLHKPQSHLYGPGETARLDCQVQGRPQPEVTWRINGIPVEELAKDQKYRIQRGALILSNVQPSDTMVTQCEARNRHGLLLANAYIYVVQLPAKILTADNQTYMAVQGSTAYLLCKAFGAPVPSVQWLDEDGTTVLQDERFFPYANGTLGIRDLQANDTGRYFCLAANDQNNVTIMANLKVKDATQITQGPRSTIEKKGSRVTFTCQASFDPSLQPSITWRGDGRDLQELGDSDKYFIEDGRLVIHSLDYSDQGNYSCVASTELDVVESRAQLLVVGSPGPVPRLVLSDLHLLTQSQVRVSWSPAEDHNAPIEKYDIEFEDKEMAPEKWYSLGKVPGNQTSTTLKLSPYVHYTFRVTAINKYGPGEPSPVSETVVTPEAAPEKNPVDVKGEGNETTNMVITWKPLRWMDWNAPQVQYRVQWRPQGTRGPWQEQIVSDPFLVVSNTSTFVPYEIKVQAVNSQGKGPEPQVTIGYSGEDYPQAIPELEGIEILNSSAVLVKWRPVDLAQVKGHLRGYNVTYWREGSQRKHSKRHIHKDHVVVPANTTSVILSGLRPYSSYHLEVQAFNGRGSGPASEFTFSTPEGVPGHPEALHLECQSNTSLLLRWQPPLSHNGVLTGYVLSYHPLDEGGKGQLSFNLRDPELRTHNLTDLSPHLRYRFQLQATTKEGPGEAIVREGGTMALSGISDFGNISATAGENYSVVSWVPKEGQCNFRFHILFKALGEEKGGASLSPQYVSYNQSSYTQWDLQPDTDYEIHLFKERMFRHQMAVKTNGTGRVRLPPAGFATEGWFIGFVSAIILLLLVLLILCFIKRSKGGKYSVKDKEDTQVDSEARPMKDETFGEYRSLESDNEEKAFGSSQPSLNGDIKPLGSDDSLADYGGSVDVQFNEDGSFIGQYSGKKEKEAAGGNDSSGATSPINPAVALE

B1: human ADAM10 (membrane-bound metalloproteinase) (protein)
chain: TTSAEKNTCQLYIQTDHLFFKYYGTREAVIAQISSHVKAIDTIYQTTDFSGIRNISFMVKRIRINTTADEKDPTNPFRFPNIGVEKFLELNSEQNHDDYCLAYVFTDRDFDDGVLGLAWVGAPSGSSGGICEKSKLYSDGKKKSLNTGIITVQNYGSHVPPKVSHITFAHEVGHNFGSPHDSGTECTPGESKNLGQKENGNYIMYARATSGDKLNNNKFSLCSIRNISQVLEKKRNNCFVESGQPICGNGMVEQGEECDCGYSDQCKDECCFDANQPEGRKCKLKPGKQCSPSQGPCCTAQCAFKSKSEKCRDDSDCAREGICNGFTALCPASDPKPNFTDCNRHTQVCINGQCAGSICEKYGLEECTCASSDGKDDKELCHVCCMKKMDPSTCASTGSVQWSRHFSGRTITLQPGSPCNDFRGYCDVFMRCRLVDADGPLARLKKAIFSPELYENIAEWIVAHWWAVLLMGIALIMLMAGFIKICSVHTPSSNPKLPPPKPLPGTLKRRRPPQPIQQPQRQRPRESYQMGHMRR
In the case of B1, the L1 cleavage result is reported as “L1 cleavage required the membrane-bound metalloproteinase ADAM10”.
